Measured values: patent publication US12624112 (MABWELL SHANGHAI BIOSCIENCE, dated 2026)

T1: ST2 on the effector cells (KU812, KU812/NF-κB-1#, HUVEC, HMC-1) (human, UniProt Q01638 19-556)
T1 sequence (looked up): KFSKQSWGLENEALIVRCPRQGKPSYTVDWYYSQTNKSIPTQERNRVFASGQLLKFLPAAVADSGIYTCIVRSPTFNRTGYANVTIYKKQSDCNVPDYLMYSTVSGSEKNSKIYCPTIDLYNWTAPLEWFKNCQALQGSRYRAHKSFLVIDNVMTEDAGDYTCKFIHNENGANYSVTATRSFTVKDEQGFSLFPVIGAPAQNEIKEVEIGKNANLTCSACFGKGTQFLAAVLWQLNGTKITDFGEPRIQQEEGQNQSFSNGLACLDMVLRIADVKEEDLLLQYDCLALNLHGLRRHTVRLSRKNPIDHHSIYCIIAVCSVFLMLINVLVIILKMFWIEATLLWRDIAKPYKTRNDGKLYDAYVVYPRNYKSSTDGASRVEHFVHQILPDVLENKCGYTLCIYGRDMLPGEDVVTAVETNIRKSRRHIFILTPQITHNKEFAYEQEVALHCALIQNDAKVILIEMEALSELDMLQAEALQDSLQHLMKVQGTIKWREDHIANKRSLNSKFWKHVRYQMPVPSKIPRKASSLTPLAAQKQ

T2: Human ST2-his (human, UniProt Q01638-2 19-328, limits assumed)
T2 construct: Expressed in CHO-K1; The printed range starts at Met1; also called human ST2 fused with a 6-histidine tag at the C-terminus
T2 sequence: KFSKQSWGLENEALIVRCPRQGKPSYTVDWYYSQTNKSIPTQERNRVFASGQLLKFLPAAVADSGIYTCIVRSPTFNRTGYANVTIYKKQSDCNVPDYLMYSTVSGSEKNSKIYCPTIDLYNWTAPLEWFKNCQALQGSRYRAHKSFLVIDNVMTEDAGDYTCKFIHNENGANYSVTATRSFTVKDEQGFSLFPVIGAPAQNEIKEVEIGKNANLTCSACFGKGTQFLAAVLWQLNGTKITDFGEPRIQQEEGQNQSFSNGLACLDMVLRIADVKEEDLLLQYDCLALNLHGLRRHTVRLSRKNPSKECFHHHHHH


Key:
[1] = biological target: T1, ST2 on the effector cells (KU812, …); experiment: cell-based or functional assay
[2] = biological target: T1, ST2 on the effector cells (KU812, …); experiment: cell-based or functional assay; remark: listed apart in the source
[3] = biological target: T1, ST2 on the effector cells (KU812, …); experiment: cell-based or functional assay; remark: listed apart in the source
[4] = biological target: T1, ST2 on the effector cells (KU812, …); experiment: cell-based or functional assay; remark: listed apart in the source
[5] = biological target: T1, ST2 on the effector cells (KU812, …); experiment: cell-based or functional assay; remark: listed apart in the source
[6] = biological target: T1, ST2 on the effector cells (KU812, …); experiment: cell-based or functional assay; remark: listed apart in the source
Human ST2-fc (human) = Human ST2-fc (human) (UniProt Q01638); experiment: competition ELISA, coated ST2-fc, competitor IL33-his
Human ST2-his [7] = biological target: T2, Human ST2-his; experiment: SPR Biacore X100, ratio of kd at pH 5.5 to kd at pH 7.4
Procedure: (§1) The experiment on the interaction between the anti-human ST2 antibodies and human ST2-his was performed using Biacore X100.
(§2) Each anti-human ST2 antibody was diluted to 2 µg/mL and captured on the surface of a protein A chip for a capture time of 60 s. Following the antibody capture, a solution of human ST2-his (2-fold gradient dilution from a starting concentration of 20 nM, to obtain 6 concentrations in total) was injected. Association was monitored for 180 s and dissociation was monitored for 700 s, and the sensor surface was regenerated by injecting a solution of glycine at pH 2.0. Kinetic data were analyzed using a simple 1:1 binding model.

Human ST2-his [8] = biological target: T2, Human ST2-his; experiment: SPR Biacore X100, antibody captured on protein A chip, human ST2-his injected, pH 7.4
Procedure: as §1, §2

Human ST2-his [9] = biological target: T2, Human ST2-his; experiment: SPR Biacore X100, antibody captured on protein A chip, human ST2-his injected, dissociation at pH 5.5
Procedure: as §1, §2

Binder	IC50, inhibition of KU812-IL5 production promoted by IL-33 (human IL33-his) [1] [µg/mL]	Maximum inhibition rate, KU812-IL5 production by IL-33 [1] [%]	Relative activity compared with CNTO7160, KU812-IL5 production by IL-33 [1] [%]	IC50, inhibition of activation of KU812-NF-κB reporter gene by IL33 [2] [ng/mL]	Maximum inhibition rate, KU812-NF-κB reporter gene [2] [%]	Relative activity compared with CNTO7160, KU812-NF-κB reporter gene [2] [%]	IC50, inhibition of KU812-IL5 production promoted by oxidized IL33 [3] [µg/mL]	Maximum inhibition rate, KU812-IL5 production by oxidized IL33 [3] [%]	Relative activity, KU812-IL5 production by oxidized IL33 [3] [%]	IC50, inhibition of KU812-IL5 production promoted by reduced IL33 [4] [µg/mL]	Maximum inhibition rate, KU812-IL5 production by reduced IL33 [4] [%]	Relative activity, KU812-IL5 production by reduced IL33 [4] [%]	IC50, inhibition of HUVEC-IL6 production promoted by IL33 [5] [µg/mL]	Maximum inhibition rate, HUVEC-IL6 production by IL33 [5] [%]	Relative activity, HUVEC-IL6 production by IL33 [5] [%]	IC50, inhibition of HMC-1 IL8 production promoted by IL33 [6] [µg/mL]	Maximum inhibition rate, HMC-1 IL8 production by IL33 [6] [%]	Relative activity, HMC-1 IL8 production by IL33 [6] [%]	IC50 (Human ST2-fc (human)) [µg/mL]	Maximum inhibition rate (Human ST2-fc (human)) [%]	also measured
5886-156-H1L0 (antibody, human IgG4 S228P, kappa, V domains shown, Humanized antibody expressed in CHO-K1, purified by protein A) VH: QVQLQESGPGLVKPSQTLSLTCTVSGYSITSDYAWNWIRQPPGKGLEWIGYIDYSGSTTYNPSLKSRVTISRDTSKNQFSLKLSSVTAADTAVYYCASTVIDSMDYWGQGTLVTVSS VL: DIVLTQSPASLAVSPGQRATITCRASKSVSTSGHSYMHWYQQKPGQPPKLLIYLASNLESGVPARFSGSGSGTDFTLTINPVEANDTANYYCQHSREFPFTFGQGTKVEIKR	0.0354	98.1	181	478	92.5	41.9	0.0285	101	77.5	0.752	93.4	195	4.05	87.9	67.3	0.177	81	56.9	1.22	89.2	Relative activity compared with CNTO7160 (Human ST2-fc (human)): 103%; kd ratio of pH 5.5/pH 7.4 (Human ST2-his [7]): 1.03; Kd (Human ST2-his [8]): 0.275 nM; koff (Human ST2-his [8]): 0.000272 s⁻¹; kon (Human ST2-his [8]): 990000 M⁻¹ s⁻¹; Kd (Human ST2-his [9]): 0.276 nM; koff (Human ST2-his [9]): 0.000279 s⁻¹; kon (Human ST2-his [9]): 1.01e+06 M⁻¹ s⁻¹
5887-41-H1L0 (antibody, human IgG4 S228P, kappa, V domains shown, Humanized antibody) VH: QVQLQESGPGLVKPSQTLSLTCTVSGYSITSDYAWDWIRQPPGKGLEWIGYIRYSGDTYYNPSLKSRVTISRDTSKNQFSLKLSSVTAADTAVYYCATTMMDTMDYWGQGTLVTVSS VL: DIVLTQSPASLAVSPGQRATITCRASKSVSTSGNSYMHWYQQKPGQPPKLLIYLASNLESGVPARFSGSGSGTDFTLTINPVEANDTANYYCQHSREFPLTFGQGTKLEIKR	0.0699	97.3	91.7	55.4	89.2	362	0.0337	101	65.4	0.706	78.6	208	1.31	93.2	208	0.123	77.8	81.6	0.58	92.8	Relative activity compared with CNTO7160 (Human ST2-fc (human)): 216%; kd ratio of pH 5.5/pH 7.4 (Human ST2-his [7]): 1; Kd (Human ST2-his [8]): 0.214 nM; koff (Human ST2-his [8]): 9.98e-05 s⁻¹; kon (Human ST2-his [8]): 467000 M⁻¹ s⁻¹; Kd (Human ST2-his [9]): 0.161 nM; koff (Human ST2-his [9]): 0.0001 s⁻¹; kon (Human ST2-his [9]): 622000 M⁻¹ s⁻¹

Second part, led by results:

IC50, inhibition of KU812-IL5 production promoted by IL-33 (human IL33-his) [1] [µg/mL]	Maximum inhibition rate, KU812-IL5 production by IL-33 [1] [%]	Relative activity compared with CNTO7160, KU812-IL5 production by IL-33 [1] [%]	IC50, inhibition of activation of KU812-NF-κB reporter gene by IL33 [2] [ng/mL]	Maximum inhibition rate, KU812-NF-κB reporter gene [2] [%]	Relative activity compared with CNTO7160, KU812-NF-κB reporter gene [2] [%]	IC50, inhibition of KU812-IL5 production promoted by oxidized IL33 [3] [µg/mL]	Maximum inhibition rate, KU812-IL5 production by oxidized IL33 [3] [%]	Relative activity, KU812-IL5 production by oxidized IL33 [3] [%]	IC50, inhibition of KU812-IL5 production promoted by reduced IL33 [4] [µg/mL]	Maximum inhibition rate, KU812-IL5 production by reduced IL33 [4] [%]	Relative activity, KU812-IL5 production by reduced IL33 [4] [%]	IC50, inhibition of HUVEC-IL6 production promoted by IL33 [5] [µg/mL]	Maximum inhibition rate, HUVEC-IL6 production by IL33 [5] [%]	Relative activity, HUVEC-IL6 production by IL33 [5] [%]	IC50, inhibition of HMC-1 IL8 production promoted by IL33 [6] [µg/mL]	Maximum inhibition rate, HMC-1 IL8 production by IL33 [6] [%]	Relative activity, HMC-1 IL8 production by IL33 [6] [%]	IC50 (Human ST2-fc (human)) [µg/mL]	Maximum inhibition rate (Human ST2-fc (human)) [%]	Binder	also measured
0.00929	98.3	656	13	95.7	1540	0.0036	102	614	0.124	75.1	1180	0.832	92.6	328	0.00551	90.6	1830	0.0204	94.1	5888-116-H0L1 (antibody, human IgG4 S228P, kappa, V domains shown, Humanized antibody) VH: QVQLVQSGAEVKKPGASVKVSCKASGYTFTDSEMYWVRQAPGQGLEWMGAIDPETGDTAFNQKFKGRVTMTRDTSTSTVYMELSSLRSEDTAVYYCARAFDNDNDDGFAYWGQGTMVTVSS VL: DIQMTQSPSSLSASVGDRVTITCSASSSVNYMHWYQQKPGKAPKRLIYDTSKLASGVPSRFSGSGSGTDYTFTISSLQPEDAATYYCQQWSSNPLTFGQGTKLEIKR	Relative activity compared with CNTO7160 (Human ST2-fc (human)): 5200%; kd ratio of pH 5.5/pH 7.4 (Human ST2-his [7]): 3.02; Kd (Human ST2-his [8]): 0.259 nM; koff (Human ST2-his [8]): 0.000464 s⁻¹; kon (Human ST2-his [8]): 1.79e+06 M⁻¹ s⁻¹; Kd (Human ST2-his [9]): 0.474 nM; koff (Human ST2-his [9]): 0.0014 s⁻¹; kon (Human ST2-his [9]): 2.95e+06 M⁻¹ s⁻¹
0.00815	97	742	39.4	86.1	508	0.0136	101	162	0.265	86.9	554	1.64	93	167	0.0472	86.8	213	0.553	93.7	5888-153-H3L1 (antibody, human IgG4 S228P, kappa, V domains shown, Humanized antibody) VH: QVQLVQSGAEVKKPGASVKVSCKASGYTFTDYELHWVRQAPGQGLEWMGTIDPETGDTVYNQKFKARVTMTADKSTSTAYMELSSLRSEDTAVYYCTRAFYNDYDDAFAYWGQGTLVTVSS VL: EIVMTQSPATLSLSPGERATLSCSVSSSVSYMHWYQQKPGQAPRRLIYDTSKLASGIPARFSGSGSGTDYTLTISSLEPEDAAVYYCQQWNSSPLTFGGGTKVEIKR	Relative activity compared with CNTO7160 (Human ST2-fc (human)): 228%; kd ratio of pH 5.5/pH 7.4 (Human ST2-his [7]): 1.57; Kd (Human ST2-his [8]): 0.097 nM; koff (Human ST2-his [8]): 0.000148 s⁻¹; kon (Human ST2-his [8]): 1.53e+06 M⁻¹ s⁻¹; Kd (Human ST2-his [9]): 0.122 nM; koff (Human ST2-his [9]): 0.000232 s⁻¹; kon (Human ST2-his [9]): 1.9e+06 M⁻¹ s⁻¹
